Patent publication US20190315859A1

Tests used:
[1] = molecular target: human CD19 expressed on the cell surface (native format) (human) (UniProt P15391); experiment: bi-specific antibody titration flow cytometry on Raji cells
[2] = molecular target: human CD19 expressed on the cell surface (native format) (human) (UniProt P15391); experiment: apparent KD from bi-specific antibody titration flow cytometry on Raji cells
[3] = molecular target: human CD19 expressed on the cell surface (native format) (human) (UniProt P15391); experiment: flow cytometry, human PBMC gated on CD20+CD3- B cells, FITC anti-His detection

Sequence of human CD19 expressed on the cell surface (native format) (human) (P15391 20-488 limits assumed): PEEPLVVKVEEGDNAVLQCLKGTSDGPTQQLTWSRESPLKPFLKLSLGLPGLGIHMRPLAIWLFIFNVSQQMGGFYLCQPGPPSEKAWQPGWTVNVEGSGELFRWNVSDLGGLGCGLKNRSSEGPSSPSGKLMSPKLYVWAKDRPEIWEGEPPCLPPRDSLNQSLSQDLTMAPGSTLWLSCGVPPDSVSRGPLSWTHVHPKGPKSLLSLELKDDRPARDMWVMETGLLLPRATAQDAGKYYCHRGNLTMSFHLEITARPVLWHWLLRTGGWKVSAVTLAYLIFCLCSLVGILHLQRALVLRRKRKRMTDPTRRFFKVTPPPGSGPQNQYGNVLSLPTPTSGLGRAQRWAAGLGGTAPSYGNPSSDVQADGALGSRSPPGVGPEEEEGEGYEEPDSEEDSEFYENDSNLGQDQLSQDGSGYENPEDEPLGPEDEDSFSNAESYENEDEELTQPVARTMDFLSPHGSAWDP

B1: CD19×CD3 bi-specific antibody based on clone 6 (bispecific antibody, part only; not given: anti-CD3 scFv arm, linker, His tag, not shown: another chain or arm of the molecule; small tags and cut ends)
scFv: QAVLTQPPSVSEAPRQRVTISCSGSSSNVGNNAVNWYQQVPGKAPKLLIYYDDLLSSGVSDRFSGSKSGTSASLAISGLQSEDEADYYCAAWDDSLNGPVFGGGTKLTVLGSRGGGGSGGGGSGGGGSLEMAEVQLVQSGAEVKKPGESLKISCKGSGYSFTSYWIGWVRQMPGKGLEWMGIIYPGDSDTRYSPSFQGQVTISADKSISTAYLQWSSLKASDTAMYYCARWSSTWDSMYMDYWGQGTLVTVSS
- EC50 [1]: 0.214 µg/mL
- Kd [2]: 4.1 nM
- Mean Fluorescence Intensity (MFI) in FITC channel [3]: 2200 MFI

B2: CD19×CD3 bi-specific antibody based on variant clone 5-3 (bispecific antibody, part only; not given: anti-CD3 scFv, linker, His tag, not shown: another chain or arm of the molecule; small tags and cut ends)
scFv: LPVLTQPPSVSVAPGKTARITCGGNNIGSKSVHWYQQKPGQAPVLVVYDDSNRPSGIPERFSGSNSGNTATLTISRVEAGDEADYYCQVWDSSSEYVVFGGGTKLTVLGSRGGGGSGGGGSGGGGSLEMAEVQLVQSGAEVKKPGESLKISCKGSGYSFTSYWIGWVRQMPGKGLEWMGIIYPGDSDTRYSPSFQGQVTISADKSISTAYLQWSSLKASDTAMYYCARQVWGWQGGMYPRSNWWYNMDSWGQGTLVTVSS
- EC50 [1]: 0.081 µg/mL
- Kd [2]: 1.6 nM

B3: CD19×CD3 bi-specific antibody based on clone 7 (bispecific antibody, part only; not given: anti-CD3 scFv, linker, His tag, not shown: another chain or arm of the molecule; small tags and cut ends)
scFv: QPVLTQPPSVSVAPGKTARITCGGNNIGSESVHWYQQKPGQAPMVVIYYDSNRPSGIPERFSGSNSGNTATLTVSRVEAEDEADYYCQVWNSSSDHRGVFGGGTKLTVLGSRGGGGSGGGGSGGGGSLEMAEVQLVQSGAEVKKPGESLRISCKGSGYSFTSYWIGWVRQMPGKGLEWMGIIYPGDSDTRYSPSFQGQVTISADKSISTAYLQWSSLKASDTAMYYCARVTYSMDSYYFDSWGQGTLVTVSS
- Mean Fluorescence Intensity (MFI) in FITC channel [3]: 1880 MFI
